Laboratory results taken from article PMC4685450, “Crystal Structure of Human SSRP1 Middle Domain Reveals a Role in DNA Binding”.

B1: AT-rich dsDNA (dsDNA)
DNA 1: ATAATTTATATTTATTATTTTATTATAATT
DNA 2: AATTATAATAAAATAATAAATATAAATTAT
B2: 30-bp linker dsDNA (dsDNA)
DNA 1: TCCAGTGCCGGTGTCGCTTGGGTCCCGAGG
DNA 2: CCTCGGGACCCAAGCGACACCGGCACTGGA
B3: GC-rich dsDNA (dsDNA)
DNA 1: GCGGCCCGCGCCCGCCGCCCCGCCGCGGCC
DNA 2: GGCCGCGGCGGGGCGGCGGGCGCGGGCCGC

Columns and labels:
Conditions in all cases: protein: recombinant; tags: N-terminal 6xHis; blunt
SSRP1-M [1] = molecular target: T1, SSRP1-M (Homo sapiens, UniProt Q08945 196-430); test: EMSA; no obvious difference from linker DNA; EMSA buffer, salt, pH and temperature not given in the material; proteins purified in 20 mM Tris-HCl, 200 mM NaCl, pH 7.0
SSRP1-N = SSRP1-N (Homo sapiens, UniProt Q08945 1-176); test: EMSA (agarose); EMSA buffer, salt, pH and temperature not given in the material; proteins purified in 20 mM Tris-HCl, 200 mM NaCl, pH 7.0
SSRP1-C = SSRP1-C (Homo sapiens, UniProt Q08945 513-709); test: as above
SSRP1-M [2] = molecular target: T1, SSRP1-M; test: EMSA (agarose and native PAGE); oligomerized complex in wells; EMSA buffer, salt, pH and temperature not given in the material; proteins purified in 20 mM Tris-HCl, 200 mM NaCl, pH 7.0

T1 sequence (Q08945 196-430): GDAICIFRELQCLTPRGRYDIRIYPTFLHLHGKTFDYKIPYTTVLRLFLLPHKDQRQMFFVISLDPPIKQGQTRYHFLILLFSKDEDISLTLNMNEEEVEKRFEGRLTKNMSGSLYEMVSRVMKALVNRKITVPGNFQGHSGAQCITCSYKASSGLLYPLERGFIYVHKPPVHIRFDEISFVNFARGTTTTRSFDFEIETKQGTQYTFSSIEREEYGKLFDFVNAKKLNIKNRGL
Chain of SSRP1-N (Q08945 1-176): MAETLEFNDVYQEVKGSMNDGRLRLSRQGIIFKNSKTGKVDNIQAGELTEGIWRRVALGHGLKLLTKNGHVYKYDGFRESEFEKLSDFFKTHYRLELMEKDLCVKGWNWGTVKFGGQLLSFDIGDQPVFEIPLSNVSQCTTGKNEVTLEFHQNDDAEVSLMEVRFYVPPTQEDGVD
Chain of SSRP1-C (Q08945 513-709): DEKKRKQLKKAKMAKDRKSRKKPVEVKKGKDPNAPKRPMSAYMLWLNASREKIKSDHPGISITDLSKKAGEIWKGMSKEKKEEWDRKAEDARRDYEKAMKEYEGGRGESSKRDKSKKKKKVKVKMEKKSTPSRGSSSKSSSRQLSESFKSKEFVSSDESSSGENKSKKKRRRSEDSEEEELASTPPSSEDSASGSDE

Binder	binding result (SSRP1-M [1])	binding result (SSRP1-N)	binding result (SSRP1-C)	binding result (SSRP1-M [2])
B1	binds			
B2		no binding	binds	binds
B3	binds			
